In article PMC3587840 (Nature, 2010):
Where a chain is given by its changes, count along the chain named. Numbers in names are those of the source.

Tests used:
SEMA4D_(ecto)(K395D) = target: T1, SEMA4D_(ecto)(K395D) (human, UniProt Q92854 22-677, K395D); assay: SPR
T1 sequence: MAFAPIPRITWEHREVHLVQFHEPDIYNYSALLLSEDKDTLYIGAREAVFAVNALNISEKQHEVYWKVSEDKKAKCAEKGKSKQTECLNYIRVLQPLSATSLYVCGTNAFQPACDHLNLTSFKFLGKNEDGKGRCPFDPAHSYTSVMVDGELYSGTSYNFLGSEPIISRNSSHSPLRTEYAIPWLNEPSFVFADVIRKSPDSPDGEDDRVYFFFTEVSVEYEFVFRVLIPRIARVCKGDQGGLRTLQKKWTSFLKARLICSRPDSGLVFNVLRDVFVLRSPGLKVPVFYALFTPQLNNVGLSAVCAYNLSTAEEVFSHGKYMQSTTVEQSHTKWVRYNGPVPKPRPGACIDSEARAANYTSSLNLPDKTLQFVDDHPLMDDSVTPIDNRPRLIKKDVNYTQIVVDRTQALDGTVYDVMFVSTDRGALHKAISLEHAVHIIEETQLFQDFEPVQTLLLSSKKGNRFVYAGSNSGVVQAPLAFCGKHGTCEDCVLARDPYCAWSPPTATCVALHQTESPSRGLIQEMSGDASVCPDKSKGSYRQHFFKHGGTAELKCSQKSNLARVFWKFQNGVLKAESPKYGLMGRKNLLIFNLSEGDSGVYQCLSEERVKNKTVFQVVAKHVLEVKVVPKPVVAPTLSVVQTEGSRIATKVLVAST

[1] = target: T2, human SEMA4D_(ecto), C-terminal His-tag (human, UniProt Q92854 22-677); assay: SPR
T2 sequence: T1 sequence with D374K

[2] = target: T3, SEMA4D_(ecto)(F244N/F246S) (human, UniProt Q92854 22-677, F244N | F246S); assay: SPR
T3 sequence: T1 sequence with F223N, F225S, D374K

[3] = target: T2, human SEMA4D_(ecto), C-terminal His-tag; assay: crystal structure
[4] = target: T4, mouse PlxnA2_(1–4), C-terminal His-tag (mouse, UniProt P70207 35-703); assay: SPR
T4 sequence: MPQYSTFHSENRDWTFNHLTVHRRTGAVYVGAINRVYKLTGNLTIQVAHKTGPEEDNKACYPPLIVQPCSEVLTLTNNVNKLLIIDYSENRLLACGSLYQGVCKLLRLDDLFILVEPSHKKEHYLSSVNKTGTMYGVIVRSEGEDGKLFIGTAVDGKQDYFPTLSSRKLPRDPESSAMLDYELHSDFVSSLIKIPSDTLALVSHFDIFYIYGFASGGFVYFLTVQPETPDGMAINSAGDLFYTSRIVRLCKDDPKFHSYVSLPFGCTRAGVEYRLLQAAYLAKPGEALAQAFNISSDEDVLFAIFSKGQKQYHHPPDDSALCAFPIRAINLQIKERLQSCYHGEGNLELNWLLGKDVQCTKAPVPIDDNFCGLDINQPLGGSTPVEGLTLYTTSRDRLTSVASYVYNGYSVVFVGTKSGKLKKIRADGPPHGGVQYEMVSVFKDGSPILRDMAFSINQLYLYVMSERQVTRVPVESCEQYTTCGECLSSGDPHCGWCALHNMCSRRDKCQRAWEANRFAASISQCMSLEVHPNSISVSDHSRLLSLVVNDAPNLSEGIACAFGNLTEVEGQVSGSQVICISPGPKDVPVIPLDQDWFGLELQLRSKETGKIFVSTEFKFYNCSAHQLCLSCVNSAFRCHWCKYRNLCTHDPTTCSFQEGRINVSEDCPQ

PlxnA2_(1–4)(D193K) = PlxnA2_(1–4)(D193K) (mouse, UniProt P70207 35-703, D193K); assay: SPR

B1: PLXNB1_(1–2)(D139K) (domain or fragment)
chain: LQPLPPTAFTPNGTYLQHLARDPTSGTLYLGATNFLFQLSPGLQLEATVSTGPVLDSRDCLPPVMPDECPQAQPTNNPNQLLLVSPGALVVCGSVHQGVCEQRRLGQLEQLLLRPERPGKTQYVAANDPAVSTVGLVAQGLAGEPLLFVGRGYTSRGVGGGIPPITTRALWPPDPQAAFSYEETAKLAVGRLSEYSHHFVSAFARGASAYFLFLRRDLQAQSRAFRAYVSRVCLRDQHYYSYVELPLACEGGRYGLIQAAAVATSREVAHGEVLFAAFSSAAPPTVGRPPSAAAGASGASALCAFPLDEVDRLANRTRDACYTREGRAEDGTEVAYIEYDVNSDCAQLPVDTLDAYPCGSDHTPSPMASRVPLEATPILEWPGIQLTAVAVTMEDGHTIAFLGDSQGQLHRVYLGPGSDGHPYSTQSIQQGSAVSRDLTFDGTFEHLYVMTQSTLLKVPVASCAQHLDCASCLAHRDPYCGWCVLLGRCSRRSECSRGQGPEQWLWSFQPELGCLQ
Q: Does B1 bind (SEMA4D_(ecto)(K395D))?
A: binds

B2: human PLXNB1_(1–2), biotinylated at an engineered C-terminal tag (domain or fragment)
chain: B1 chain with K120D
modifications: biotin on the engineered C-terminal tag (enzymatic)
Q: What does the source list for B2?
A: binding result [1]: binds; Kd [2]: 5.5 µM

B3: human PLXNB1_(1–2), C-terminal His-tag (domain or fragment)
chain: B1 chain with K120D
Q: Does B3 bind [3]?
A: binds

B4: mouse Sema6A_(ecto), biotinylated at an engineered C-terminal tag (domain or fragment)
chain: GFPEDSEPISISHGNYTKQYPVFVGHKPGRNTTQRHRLDIQMIMIMNRTLYVAARDHIYTVDIDTSHTEEIYCSKKLTWKSRQADVDTCRMKGKHKDECHNFIKVLLKKNDDTLFVCGTNAFNPSCRNYRVDTLETFGDEFSGMARCPYDAKHANIALFADGKLYSATVTDFLAIDAVIYRSLGDSPTLRTVKHDSKWLKEPYFVQAVDYGDYIYFFFREIAVEYNTMGKVVFPRVAQVCKNDMGGSQRVLEKQWTSFLKARLNCSVPGDSHFYFNILQAVTDVIRINGRDVVLATFSTPYNSIPGSAVCAYDMLDIANVFTGRFKEQKSPDSTWTPVPDERVPKPRPGCCAGSSSLEKYATSNEFPDDTLNFIKTHPLMDEAVPSIINRPWFLRTMVRYRLTKIAVDNAAGPYQNHTVVFLGSEKGIILKFLARIGSSGFLNGSLFLEEMNVYNPEKCSYDGVEDKRIMGMQLDRASGSLYVAFSTCVIKVPLGRCERHGKCKKTCIASRDPYCGWVRESGSCAHLSPLSRLTFEQDIERGNTDGLGDCHNS
modifications: biotin on the engineered C-terminal tag (enzymatic)
Q: B4 was tested. Which Kd [4] did it give?
A: 2.3 µM

B5: mouse Sema6A_(ecto), C-terminal His-tag (domain or fragment)
chain: B4 chain
Q: Which “fold weaker binding than wild type” value (PlxnA2_(1–4)(D193K)) does the source give for B5 here?
A: > 9 fold

B6: Sema6A_(ecto)(I322E), coupled to the chip (domain or fragment, mouse, UniProt O35464 19-571, looked up)
chain: B4 chain with I304E
modifications: biotin on the engineered C-terminal tag (enzymatic)
Q: Does B6 bind [4]?
A: binds
